Publication PMC1257591, “In Vitro Inhibition of Human Hepatic and cDNA-Expressed Sulfotransferase Activity with 3-Hydroxybenzo[a]pyrene by Polychlorobiphenylols” (Environmental Health Perspectives, 2005)

System: T1, Oc1ccc2ccc3c4ccccc4cc4ccc1c2c43
T1 construct: made in house; host or cells: Escherichia coli
Assay: Kinetics of 3-OH-BaP sulfonation by partially purified cDNA-expressed SULT1B1
Type: biochemical, human
Settings: other: apparent, 3-OH-BaP as substrate
From the text: The expression of human SULT1A1*1, SULT1A3, SULT1B1, and SULT1E1 in Escherichia coli has been described previously ([Dajani et al. 1998]; [Wang et al. 1998]). We grew E. coli cells containing the respective sulfotransferase genes as described previously ([Falany et al. 1990], [1994]), and prepared 100,000g supernatant fractions for use in inhibition studies and for partial purification of the SULT enzymes. We purchased expressed SULT1A1*2 cytosolic extract from PanVera (Madison, WI) and used it as supplied.
The 100,000g supernatant fractions of SULT1A1*1, SULT1A3, SULT1B1, and SULT1E1 were partially purified by chromatographic methods ([Falany et al. 1990], [1994]). After the last step, a 3′-phosphoadenosine 5′-phosphate (PAP)-agarose affinity column, we dialyzed the fractions eluted with PAP with three changes of buffer to remove PAP before the assay of SULT activity with 3-OH-BaP as substrate. We analyzed active fractions by SDS-PAGE ([Laemmli 1970]) to assess the purity of each SULT enzyme. We stained the gels with Coomassie R-250 reagent and determined the percentage of protein present as each respective SULT enzyme by scanning densitometry.
We determined SULT activity with 3-OH-BaP as substrate by a fluorimetric assay of BaP-3-SO4 product formation, as described previously ([Wang et al. 2004]). […] Duplicate tubes were prepared for each incubation condition. We examined the kinetics of sulfonation in three liver cytosol fractions by systematically varying the concentration of 3-OH-BaP or PAPS. When the variable substrate was 3-OH-BaP, we used 12 concentrations in the range from 0.035 to 2.00 μM, and the concentration of PAPS was kept constant at 10 μM. […]
We determined the kinetic parameters for 3-OH-BaP sulfonation by partially purified preparations of the cDNA-expressed SULT isozymes under incubation conditions similar to those used for liver cytosol. […]
We calculated the enzyme kinetic parameters from studies with variable concentrations of 3-OH-BaP using nonlinear regression analysis and GraphPad 4.0 software (GraphPad Software, San Diego, CA). […]

SULT1B1 (Homo sapiens)
Km: 2.00 µM
Vmax: 0.0097 µmol/min/mg
Vmax/Km: 4900 µL/min/mg
